# Test system: MS2 coat protein
# Experiment: apparent KD of MS2 coat protein; designed switch direction (-1 OFF switch, 1 ON switch): 1; higher = weaker reporter binding
# In short: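 Three titration conditions were used: no input, 200 uM small-molecule ligand, and an oligonucleotide input. In each, SNAP-549-labelled MS2 coat protein was raised from 0.7 or 1.5 nM, doubling, to 3 µM over designed RNA switches transcribed on Illumina chips by stalled E. coli RNA polymerase. Curve fits of normalised cluster fluorescence gave values whose per-design median over clusters is the apparent KD.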
# [1] = input ligand: microRNA oligo, concentration not stated
# [2] = Eterna round: R95, input ligand: microRNA oligo, concentration not stated
# [3] = Eterna round: R95, input ligand: FMN 200 uM
# [4] = Eterna round: R95, input ligand: none
sequence,measurement,setting,value
"AGUCCAGCCUGAGCUGGACAAAAGCAUGUACAUGAGGAUCACCCAUGUUCAUGUACAAGCUUUUUGCUCGUCUUUAA [salish99_208a_r3_096x] (Eterna round: R96, puzzle: Sensor for hsa-mir-208a)",apparent KD of MS2 coat protein,input ligand: FMN 200 uM,559 nM
same,apparent KD of MS2 coat protein,[1],14.5 nM
same,apparent KD of MS2 coat protein,input ligand: none,577 nM
"GUUAGGAAUCUAGCAUACAUGAGGAUCACCCAUGUAAGUGGGAAGGAUAUGGUACAGAAACUGUACCAGAAGGUCUUAUUAAUU [Omei SS(NG) 3 A] (Eterna round: R96, puzzle: Same State NG 3)",apparent KD of MS2 coat protein,input ligand: FMN 200 uM,65.3 nM
same,apparent KD of MS2 coat protein,[1],80.4 nM
same,apparent KD of MS2 coat protein,input ligand: none,63.1 nM
"GUGGUCAGACAUGAGGAUCACCCAUGUGGAAUAAAUAAGGAGAAGGAUAUGCAAUAUAGGAUAUAGCAGAAGGUUUGGUUGGUG (Eterna round: R96, puzzle: Same State NG 3)",apparent KD of MS2 coat protein,[1],69.6 nM
"ACCCGCGGGCCACAUGAGGAUCACCCAUGUGACCGGUGAUCCAAGGAUAUACGUGUCAUUGACGCGUAGAAGGUGGCCAAAACA [Ersooned] (Eterna round: R96, puzzle: Same State NG 3)",apparent KD of MS2 coat protein,input ligand: FMN 200 uM,49.2 nM
same,apparent KD of MS2 coat protein,[1],22.7 nM
same,apparent KD of MS2 coat protein,input ligand: none,28.8 nM
CCGUAGAUGGGACAGGAUAUGACUGUCGUCACAUGAGGAUCACCCAUGUCCCGGCAAUGCCACCGUUAGAAGGGUCCCGUCUCGG [Tiquiser] (puzzle: Same State 2),apparent KD of MS2 coat protein,[2],12.2 nM
AGUCCAGCCUGAGCUGGACUGAAGCAUGUACAUGAGGAUCACCCAUGUUCAUGUGCAGGCUUUUUGCUCGUCUUAUG [JL-shm-2.01 JL mod] (puzzle: Sensor for hsa-mir-208a),apparent KD of MS2 coat protein,[3],84.7 nM
same,apparent KD of MS2 coat protein,[2],13.5 nM
same,apparent KD of MS2 coat protein,[4],108 nM
"UUAAUGAAGUAAGGAUAUACAUGAGGAUCACUCGUAGAAGGUACUAAACAUGAGGAUCACCCAUGUACCGGUCCGUAGACUGGA [JL SSNG1 1.01] (Eterna round: R96, puzzle: Same State NG 1)",apparent KD of MS2 coat protein,input ligand: FMN 200 uM,472 nM
same,apparent KD of MS2 coat protein,[1],157 nM
same,apparent KD of MS2 coat protein,input ligand: none,572 nM
"GGAGCUGUUAUAGGAUAUCCCGCUCAUUACGCGGGAGAAGGGUGACGCUCACAUGAGGAUCACCCAUGUGGCGUUCCAAAAUAA [Reesti] (Eterna round: R96, puzzle: Same State NG 1)",apparent KD of MS2 coat protein,input ligand: FMN 200 uM,8.43 nM
same,apparent KD of MS2 coat protein,[1],7.1 nM
same,apparent KD of MS2 coat protein,input ligand: none,12.6 nM
"UGAAUAAUGUUAGGAUAUACAUGAGGAAUCCUCGUAGAAGGAACAUGACAUGAGGAUCACCCAUGUAGCGCUCCGUAGAGCGCA [Mat - Same State NG 1 - JL mod - D49] (Eterna round: R96, puzzle: Same State NG 1)",apparent KD of MS2 coat protein,input ligand: FMN 200 uM,111 nM
same,apparent KD of MS2 coat protein,[1],39.5 nM
same,apparent KD of MS2 coat protein,input ligand: none,250 nM
GUAAAACAUGAGGAUCACCCAUGUAAUAAUAUGGGAGGAUAUCAGAUUUAAUUUAAUUUAUGAGAAGGCCUAAAGU [Mat - Same State 1 - Mod of Eli - D63] (puzzle: Same State 1),apparent KD of MS2 coat protein,[3],94.4 nM
same,apparent KD of MS2 coat protein,[2],16.4 nM
same,apparent KD of MS2 coat protein,[4],628 nM
"CUGAAAUGUCAAGGAUAUCACGUCGAUUAGACGUGAGAAGGUGAUCUGCACAUGAGGAUCACCCAUGUGUUACAUGGAAAUCAG [Brourd's SSNG1/1-A2 mod 14] (Eterna round: R96, puzzle: Same State NG 1)",apparent KD of MS2 coat protein,input ligand: FMN 200 uM,312 nM
same,apparent KD of MS2 coat protein,[1],581 nM
same,apparent KD of MS2 coat protein,input ligand: none,964 nM
"GUUACAUGAGGAUCACCCAUGUAUGUGUGGGAGUAAGUGUCUUAGGAUAUCUAUUAUGUAAAUUAAGAGAAGGAAGAUUGUUGU [JMF's solution 17] (Eterna round: R96, puzzle: Same State NG 3)",apparent KD of MS2 coat protein,input ligand: FMN 200 uM,160 nM
same,apparent KD of MS2 coat protein,[1],222 nM
same,apparent KD of MS2 coat protein,input ligand: none,262 nM
"UUGAAGAAUUAAGGAUAUCGAGUCGUCAAAUUAAACAUGAGGAUCACCCAUGUGGGUUGCGGUAUCGAGAAGGUAAAUUACUAG [JL JR Sub099 mod 4] (Eterna round: R96, puzzle: Same State NG 2)",apparent KD of MS2 coat protein,input ligand: FMN 200 uM,11.9 nM
same,apparent KD of MS2 coat protein,[1],15.2 nM
same,apparent KD of MS2 coat protein,input ligand: none,32.3 nM
UGAAUACAUGAGGAUCACCCAUGUCAACGUAGUCGAGGAUAUGGGCAGCCGUGAGGCGUACUAGAAGGCGAAGAGG [JL-ss1-3.07 ViennaUCT mod] (puzzle: Same State 1),apparent KD of MS2 coat protein,[3],131 nM
same,apparent KD of MS2 coat protein,[2],89.9 nM
same,apparent KD of MS2 coat protein,[4],175 nM
CUAACAACAAGUUGCAGUGUUCGUCUUUAACAUGAGGAUCACCCAUGUAAUAGCCCGGUAGAAGCGCUCGGGCCACC [Anaesrain] (puzzle: Sensor for hsa-mir-208a),apparent KD of MS2 coat protein,[3],32.8 nM
same,apparent KD of MS2 coat protein,[2],38.1 nM
same,apparent KD of MS2 coat protein,[4],36.3 nM
ACAAGCUUUUCUGUAGUGAAAGGUGGGAUACAUGAGGAUCACCCAUGUAUUGUUGUCAAUAUUUGUCCUCGUCUUAU [JR_SHM208A_Sub086] (puzzle: Sensor for hsa-mir-208a),apparent KD of MS2 coat protein,[3],31.4 nM
same,apparent KD of MS2 coat protein,[2],11 nM
same,apparent KD of MS2 coat protein,[4],31.1 nM
"GGUAGGUUACUACCAAACAUGAGGAUCACCCAUGUAAGUGGGAAGGAUAUGGUACCGUUUCGGUACCAGAAGGUCCAUAUAGUA [JL Fiskers NG3ss - 2 mod 11] (Eterna round: R96, puzzle: Same State NG 3)",apparent KD of MS2 coat protein,input ligand: FMN 200 uM,232 nM
same,apparent KD of MS2 coat protein,[1],658 nM
same,apparent KD of MS2 coat protein,input ligand: none,1530 nM
"UGGCUGGUGCUAGGAUAUGCAUGAGGAAUCCUCGUAGAAGGAGCACGACAUGAGGAUCACCCAUGUAGCCGUCCGUAGACGGCU [salish99_SSNG1_r04_009] (Eterna round: R96, puzzle: Same State NG 1)",apparent KD of MS2 coat protein,input ligand: FMN 200 uM,98.7 nM
same,apparent KD of MS2 coat protein,[1],26.3 nM
same,apparent KD of MS2 coat protein,input ligand: none,91.8 nM
UCUUGGUUUUUGCUCGUUUUUUGUGUUGAACAUGAGGAUCACCCAUGUAUUGUACGAUCCGAUUUAAUAAUGGUCCG [JMF 62] (puzzle: Sensor for hsa-mir-208a),apparent KD of MS2 coat protein,[3],63.2 nM
same,apparent KD of MS2 coat protein,[2],55.7 nM
same,apparent KD of MS2 coat protein,[4],83.1 nM
GAGGGAUGAGCGUAGGAUAUAGGAGGAGUGACAUGAGGAUCACCCAUGUGGUAUGAGGGAGGAUUCUAGAAGGACGCGGUAGAAG [JR_SS2_Sub064] (puzzle: Same State 2),apparent KD of MS2 coat protein,[3],66.4 nM
same,apparent KD of MS2 coat protein,[2],172 nM
same,apparent KD of MS2 coat protein,[4],235 nM
"GCUCGAUGAGCGUUCUACAUGAGGAUCACCCAUGUUCGUGGGCAGGAUAUUUACAUGCAGAGUGUAGAGAAGGGCCCAUCGAGC [SameState NG3 #66] (Eterna round: R96, puzzle: Same State NG 3)",apparent KD of MS2 coat protein,input ligand: FMN 200 uM,205 nM
same,apparent KD of MS2 coat protein,[1],117 nM
same,apparent KD of MS2 coat protein,input ligand: none,838 nM
"UCAAGAUCGCGAGGAUAUCGCGAGGAUCACCCGUGAGAAGGCGCAGAGCCGAGGAUCACCCGGCUGAUCCUGAGGAGGAGGUAA (Eterna round: R96, puzzle: Same State NG 1)",apparent KD of MS2 coat protein,input ligand: FMN 200 uM,139 nM
same,apparent KD of MS2 coat protein,[1],234 nM
same,apparent KD of MS2 coat protein,input ligand: none,420 nM
"GAGUAGUUGGGAGGAUAUGCAUUGUUAUUAAAUGCAGAAGGUUUUAACAUGAGGAUCACCCAUGUAGGACUAUUCCUGUGUAUC [Parity 70 - Jieux - Same State NG 1] (Eterna round: R96, puzzle: Same State NG 1)",apparent KD of MS2 coat protein,input ligand: FMN 200 uM,17.3 nM
same,apparent KD of MS2 coat protein,[1],13.7 nM
same,apparent KD of MS2 coat protein,input ligand: none,17.1 nM
"AGCUAUUAAUCAGGAUAUAGUGACAUGAGGAUCACCCAUGUAUUAAUGAUGAAAUGUGGUCGCCGCUAGAAGGGAUUACUAACA [SameState NG2 #44] (Eterna round: R96, puzzle: Same State NG 2)",apparent KD of MS2 coat protein,input ligand: FMN 200 uM,67.1 nM
same,apparent KD of MS2 coat protein,[1],22 nM
same,apparent KD of MS2 coat protein,input ligand: none,30.1 nM
"GCUGGAAACUACAUGAGGAUCACCCAUGUUCCGGAAACGGCACAGGAUAUCUGUCCGAAAAGGUCAGAGAAGGGUGAAACCAGC [Fiskers NG3ss - 84] (Eterna round: R96, puzzle: Same State NG 3)",apparent KD of MS2 coat protein,input ligand: FMN 200 uM,106 nM
same,apparent KD of MS2 coat protein,[1],90.3 nM
same,apparent KD of MS2 coat protein,input ligand: none,1020 nM
"GUCGGACCGGAAGGAUAUAACGACUGGUGUUUUCACAUGAGGAUCACCCAUGUAUCUCUACCGUGUUAGAAGGUUCGGAGGAAU [Eternabot solution 49] (Eterna round: R96, puzzle: Same State NG 2)",apparent KD of MS2 coat protein,input ligand: FMN 200 uM,14.8 nM
same,apparent KD of MS2 coat protein,[1],15.2 nM
same,apparent KD of MS2 coat protein,input ligand: none,20.4 nM
AGUCCAGCGAAAGCUGGACAAAAGCGUGUACAUGAGGAUCACCCAUGUUCAUGUACAAGCUUUUUGCUCGUCUUAAA [JL mod - D95 - 6] (puzzle: Sensor for hsa-mir-208a),apparent KD of MS2 coat protein,[3],30.7 nM
same,apparent KD of MS2 coat protein,[2],17.3 nM
same,apparent KD of MS2 coat protein,[4],96.2 nM
GGAGAGAGAGCGGAGGAUAUUCAAGGAGAGACAUGAGGAUCACCCAUGUAAGAGAGAGAGGAGAGGAAGAAGGCUGAGAGAGAGG [Altered State 2-10 - Jieux - Same State 2] (puzzle: Same State 2),apparent KD of MS2 coat protein,[3],32.1 nM
same,apparent KD of MS2 coat protein,[2],26.9 nM
same,apparent KD of MS2 coat protein,[4],42.8 nM
AUUUAACAAGCUUUUUGCUCGUCUUAUAAACAUGAGGAUCACCCAUGUAAUAGCGUGAGAGUAAAUUUAUAAAUAAU [JMF 88] (puzzle: Sensor for hsa-mir-208a),apparent KD of MS2 coat protein,[3],15.7 nM
same,apparent KD of MS2 coat protein,[2],42.5 nM
same,apparent KD of MS2 coat protein,[4],14.7 nM
"GGUCGGACUCACAUGAGGAUCACCCAUGUUCCGGAAACGGGACAGGAUAUCUGUCCGAAAAGGUCAGAGAAGGGUCUACCGACC [Fiskers NG3ss - 54] (Eterna round: R96, puzzle: Same State NG 3)",apparent KD of MS2 coat protein,input ligand: FMN 200 uM,353 nM
same,apparent KD of MS2 coat protein,[1],126 nM
same,apparent KD of MS2 coat protein,input ligand: none,289 nM
"UUAAUGAUGAAAGGAUAUACAUGAGGAAUUCUCGUAGAAGGUUCAUGACAUGAGGAUCACCCAUGUAUCGCUCCGUAGAGCGUA [JL SSNG1 1.13] (Eterna round: R96, puzzle: Same State NG 1)",apparent KD of MS2 coat protein,input ligand: FMN 200 uM,713 nM
same,apparent KD of MS2 coat protein,[1],38.4 nM
same,apparent KD of MS2 coat protein,input ligand: none,82.6 nM
